Biological target: T1, Human recombinant DPP9 (dipeptidyl peptidase 9), His-tagged (human, UniProt Q86TI2 1-863)
T1 construct: Dipeptidyl peptidase 9, human, recombinant; Held on a Ni chip by its His tag in SPR; used in solution in the pull-down; also called purified DPP9; His-tagged DPP9; source: Sf9 cells, purified essentially as described in Pilla et al. 2012
Experiment: SPR; His-tagged DPP9 immobilised on a Ni-loaded NiHC1000m chip; serial dilution of BRCA2 peptides injected; 20 mM HEPES pH 7.4, 150 mM NaCl, 50 µM EDTA, 0.005 % TWEEN-20; 20°C; equilibrium binding analysis
Details: both partners purified

T1 sequence (Q86TI2 whole entry): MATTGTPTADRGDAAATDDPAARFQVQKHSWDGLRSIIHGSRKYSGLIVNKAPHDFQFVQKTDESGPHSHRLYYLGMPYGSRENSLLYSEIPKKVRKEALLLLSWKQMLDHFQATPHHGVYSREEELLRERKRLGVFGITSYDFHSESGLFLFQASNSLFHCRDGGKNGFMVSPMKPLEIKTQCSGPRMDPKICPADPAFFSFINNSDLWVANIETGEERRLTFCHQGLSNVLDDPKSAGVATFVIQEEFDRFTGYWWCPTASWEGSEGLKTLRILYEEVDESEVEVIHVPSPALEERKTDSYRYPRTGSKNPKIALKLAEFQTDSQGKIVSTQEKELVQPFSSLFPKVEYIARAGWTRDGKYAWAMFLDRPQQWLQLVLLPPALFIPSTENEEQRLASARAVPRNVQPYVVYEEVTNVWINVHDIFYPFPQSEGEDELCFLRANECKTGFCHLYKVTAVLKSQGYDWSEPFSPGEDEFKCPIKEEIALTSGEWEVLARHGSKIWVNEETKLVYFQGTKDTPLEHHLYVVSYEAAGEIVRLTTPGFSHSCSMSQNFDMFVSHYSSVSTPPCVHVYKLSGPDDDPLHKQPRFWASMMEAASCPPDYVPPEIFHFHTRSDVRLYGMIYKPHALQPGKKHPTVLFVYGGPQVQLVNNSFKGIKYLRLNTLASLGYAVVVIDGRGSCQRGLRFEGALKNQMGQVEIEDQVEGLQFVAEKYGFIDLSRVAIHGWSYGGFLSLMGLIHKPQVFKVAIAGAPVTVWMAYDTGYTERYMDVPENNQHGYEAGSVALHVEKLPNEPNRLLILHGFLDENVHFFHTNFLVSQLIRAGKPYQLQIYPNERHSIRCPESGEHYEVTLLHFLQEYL

Kd | Binder
75.3 ± 4.8 µM | IGSKERPTFFEIFKTRCNKADLGPISLNWFEELSSEAP (peptide, UniProt P51587 3-40, looked up, BRCA2, human, residues 3-40; also called truncated BRCA2_(3-40) peptide; source: synthetic peptide) [BRCA2_(3-40) synthetic peptide (truncated, lacking Met1-Pro2)]
16.8 ± 0.7 µM | MPIGSKERPTFFEIFKTRCNKADLGPISLNWFEELSSEAP (peptide, UniProt P51587 1-40, looked up, BRCA2, human, residues 1-40; also called BRCA2_(1-40) N-terminal peptide; BRAC2_(1-40) peptide; source: synthetic peptide) [BRCA2_(1-40) synthetic peptide (first forty amino acids of BRCA2)]
